Here are results for one molecule from article PMC11681868, “Unveiling the structural mechanisms behind high affinity and selectivity in phosphorylated epitope-specific rabbit antibodies” (The Journal of Biological Chemistry, 2024).

The target in this assay is T1, Akt peptide (synthetic peptide; letters match human …).
T1 construct: Akt peptide around 473-Ser, not phosphorylated; also called non-phosphorylated antigen; non-phosphorylated peptide; source: synthetic peptide (SCRUM Inc.)
T1 chain: RPHFPQFSYSAS
As to the kind of experiment: ITC; iTC200; 5 μM scFv in the cell, 50 μM peptide in the syringe; samples dialyzed against PBS; triplicate. Conditions: both partners purified.

B1: rabbit antibody A4 scFv (wild type) (scFv, V domains shown)
VH: QEQLMESGGRLVTPGTPLTLTCTASGSDISTYSISWVRQAPGKGLEWIGHIGSSGTQYYASWAKGRFAISRASTTVDLRITGPTTEDTATYFCARRGVGYNLYYNMWGPGTLVTVSL
VL: AIDMTQTPSPVSAAVGGTVTINCQASQSVYNSKNLAWYQQKPGQPPKLLIYDSSTLASGVSSRFRGSGSGTQFTLTISGVQSDDAATYYCQGEFSCSSGDCAGFGGGTEVVVE
notes: VH of rabbit antibody A4; they are in PDB 8JOW (A4 scFv); GS linker of the scFv; PDB 8JOW may hold them; VL (kappa) of rabbit antibody A4; they are in PDB 8JOW; the deposited construct should already hold Ser at L80 (Chothia); Antibody numbering is Chothia; also called A4 WT; source: E. coli BL21(DE3), purified (Ni-NTA, SEC)
Regarding B1, the Kd is 1120 nM.
